Broadly, the stoichiometry N is the number of molecules, sites or subunits per partner or assembly. By Kd is commonly meant the equilibrium constant for the complex coming apart. A low value points to a tighter complex.

The results in this text go back to publication PMC3312341 (Journal of Molecular Biology, 2012).

The data set “SEC” deals with the molecule itself. Put plainly: SEC.
For data set [1], the target named is T1, biotinylated human erythrocyte β-spectrin repeats 12–17 (human, UniProt P11277 1486-2083, biotin (biotinylated; site not stated)).
T1 sequence (looked up): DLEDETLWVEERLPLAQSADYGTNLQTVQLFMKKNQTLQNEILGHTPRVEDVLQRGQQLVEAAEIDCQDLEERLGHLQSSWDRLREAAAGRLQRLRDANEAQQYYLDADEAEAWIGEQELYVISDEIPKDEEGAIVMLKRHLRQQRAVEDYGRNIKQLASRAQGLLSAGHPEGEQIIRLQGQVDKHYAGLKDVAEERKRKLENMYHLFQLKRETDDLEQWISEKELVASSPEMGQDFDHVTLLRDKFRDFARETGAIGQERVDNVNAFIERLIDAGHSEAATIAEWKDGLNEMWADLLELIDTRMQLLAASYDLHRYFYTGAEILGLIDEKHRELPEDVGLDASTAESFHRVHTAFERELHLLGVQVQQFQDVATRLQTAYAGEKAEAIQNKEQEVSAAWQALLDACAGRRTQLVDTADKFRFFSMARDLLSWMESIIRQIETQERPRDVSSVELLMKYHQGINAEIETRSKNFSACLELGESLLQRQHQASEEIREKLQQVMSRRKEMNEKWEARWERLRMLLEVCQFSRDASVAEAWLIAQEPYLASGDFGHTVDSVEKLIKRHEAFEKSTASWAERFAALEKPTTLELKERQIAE
Put plainly: SPR. A general note: Surface plasmon resonance follows binding to a sensor surface in real time, without labels.

B1: Ankyrin-R Death domain (DD), residues 1394–1497 (domain or fragment, human, UniProt P16157 1394-1497, looked up)
chain: PGSLSGTEQAEMKMAVISEHLGLSWAELARELQFSVEDINRIRVENPNSLLEQSVALLNLWVIREGQNANMENLYTALQSIDRGEIVNMLEGSGRQSRNLKPDR
For the molecule B1, in the data set “SEC”, the “stoichiometry N” value amounted to 2.

B2: ZU5A-ZU5B fragment of human erythrocyte ankyrin (ankyrin-R), residues 911–1233 (domain or fragment, UniProt P16157 911-1233, looked up)
chain: TGFLVSFMVDARGGSMRGSRHNGLRVVIPPRTCAAPTRITCRLVKPQKLSTPPPLAEEEGLASRIIALGPTGAQFLSPVIVEIPHFASHGRGDRELVVLRSENGSVWKEHRSRYGESYLDQILNGMDEELGSLEELEKKRVCRIITTDFPLYFVIMSRLCQDYDTIGPEGGSLKSKLVPLVQATFPENAVTKRVKLALQAQPVPDELVTKLLGNQATFSPIVTVEPRRRKFHRPIGLRIPLPPSWTDNPRDSGEGDTTSLRLLCSVIGGTDQAQWEDITGTTKLVYANECANFTTNVSARFWLSDCPRTAEAVNFATLLYKEL
In the case of B2, the Kd in data set [1] was determined as 8.3 nM.
